Here are results for two molecules from patent US20200384081A1 (Janssen / Centocor, published 2020).

The target in one assay is IL-12 (mouse) (mouse) (UniProt P43432). Nature of the assay: cell-based or functional assay. The conditions noted are these: scale: fold more effective than the anti-p35 mAb.
Assay [1] deals with T1, human p40 single mutant M23T (human, UniProt P29460 23-328).
T1 construct: HEK293E supernatant
T1 sequence: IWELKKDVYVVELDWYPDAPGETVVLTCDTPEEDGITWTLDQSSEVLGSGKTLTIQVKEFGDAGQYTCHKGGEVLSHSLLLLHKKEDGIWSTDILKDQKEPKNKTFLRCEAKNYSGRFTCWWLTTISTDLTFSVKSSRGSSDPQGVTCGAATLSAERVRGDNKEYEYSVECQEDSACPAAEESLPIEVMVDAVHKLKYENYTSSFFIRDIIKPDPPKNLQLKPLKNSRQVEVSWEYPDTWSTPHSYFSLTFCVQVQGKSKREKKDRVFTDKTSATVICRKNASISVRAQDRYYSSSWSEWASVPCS
Kind of assay: capture assay, relative binding affinity of the mAb to p40 muteins (FIG. 4). The method, then: (§1) In brief, MSD high bind plates (Meso Scale Discovery, MD) were coated with 5 μl of a capture monoclonal antibody (5 μg/ml) at room temperature for 1 hour. […] One-hundred and fifty (150) μl of 5% MSD Blocker A buffer was added to each well and incubated for 1 hr at room temperature. Plates were washed three times with 0.1 M HEPES buffer (pH 7.4). These protein-charged ELISA plates were incubated with 25 μl of different transiently expressed p40 mutant supernatants (1:10 dilution with 0.1 M HEPES buffer, pH 7.4) for 1 hr at room temperature. The plates were washed three times with 0.1 M HEPES buffer (pH 7.4). Twenty-five (25) μ1 of different concentrations of MSD Sulfo-TAG labeled p40 mAb, ranging from 0 to 20 μg/ml, were dispensed to micro-wells. After incubation for 2 hrs shaking at room temperature, plates were washed 3 times with 0.1 M HEPES buffer (pH 7.4). One hundred and fifty (150) μ1 of diluted MSD Read Buffer T was dispensed into each well and the plates were analyzed with a SECTOR imager (MSD).

Assay [2] has as its target T2, human p40 single mutant L40T (human, UniProt P29460 23-328).
T2 construct: HEK293E supernatant
T2 sequence: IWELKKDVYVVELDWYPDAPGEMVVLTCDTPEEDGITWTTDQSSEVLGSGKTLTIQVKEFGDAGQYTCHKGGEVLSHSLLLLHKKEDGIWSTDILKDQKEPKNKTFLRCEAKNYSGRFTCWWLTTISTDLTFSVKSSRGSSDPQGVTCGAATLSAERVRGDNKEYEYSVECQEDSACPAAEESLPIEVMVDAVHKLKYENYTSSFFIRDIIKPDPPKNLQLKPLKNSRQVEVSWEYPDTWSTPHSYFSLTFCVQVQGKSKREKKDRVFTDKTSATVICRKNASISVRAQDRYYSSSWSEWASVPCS
Described as above. The method, then:
as §1

Assay [3] addresses T3, human p40 single mutant S43R (human, UniProt P29460 23-328).
T3 construct: HEK293E supernatant
T3 sequence: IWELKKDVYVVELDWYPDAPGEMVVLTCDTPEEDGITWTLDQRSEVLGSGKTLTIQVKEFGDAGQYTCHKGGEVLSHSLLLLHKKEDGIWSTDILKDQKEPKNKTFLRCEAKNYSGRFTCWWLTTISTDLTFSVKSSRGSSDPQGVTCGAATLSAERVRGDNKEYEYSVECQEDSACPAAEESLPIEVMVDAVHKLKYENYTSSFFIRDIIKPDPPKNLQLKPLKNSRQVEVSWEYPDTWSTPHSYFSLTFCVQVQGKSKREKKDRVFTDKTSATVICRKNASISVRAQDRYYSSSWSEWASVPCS
The description is as above. How it is done:
as §1

The target in assay [4] is T4, human p40 single mutant E45A (human, UniProt P29460 23-328).
T4 construct: HEK293E supernatant
T4 sequence: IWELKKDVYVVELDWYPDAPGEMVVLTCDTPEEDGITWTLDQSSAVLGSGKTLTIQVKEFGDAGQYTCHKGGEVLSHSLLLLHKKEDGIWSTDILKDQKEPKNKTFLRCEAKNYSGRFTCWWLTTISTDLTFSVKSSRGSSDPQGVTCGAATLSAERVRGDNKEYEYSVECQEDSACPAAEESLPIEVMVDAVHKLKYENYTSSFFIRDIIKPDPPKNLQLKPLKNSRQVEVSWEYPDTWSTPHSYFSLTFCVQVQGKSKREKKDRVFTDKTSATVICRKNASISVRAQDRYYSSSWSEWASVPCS
The assay is described as above. How it is done: as §1

IL-12 (mouse) (mouse), sequence (P43432 23-335 limits assumed, chain 1 of 2): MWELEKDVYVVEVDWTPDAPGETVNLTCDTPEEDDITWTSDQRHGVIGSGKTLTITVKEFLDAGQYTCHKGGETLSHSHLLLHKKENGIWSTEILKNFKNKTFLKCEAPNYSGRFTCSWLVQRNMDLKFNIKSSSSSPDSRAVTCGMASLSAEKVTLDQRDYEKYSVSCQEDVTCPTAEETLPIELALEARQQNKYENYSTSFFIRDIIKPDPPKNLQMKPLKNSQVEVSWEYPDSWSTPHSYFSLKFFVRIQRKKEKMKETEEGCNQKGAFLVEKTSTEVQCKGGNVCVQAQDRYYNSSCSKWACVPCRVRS
IL-12 (mouse) (mouse), sequence (P43431 23-215 limits assumed, chain 2 of 2, further chain): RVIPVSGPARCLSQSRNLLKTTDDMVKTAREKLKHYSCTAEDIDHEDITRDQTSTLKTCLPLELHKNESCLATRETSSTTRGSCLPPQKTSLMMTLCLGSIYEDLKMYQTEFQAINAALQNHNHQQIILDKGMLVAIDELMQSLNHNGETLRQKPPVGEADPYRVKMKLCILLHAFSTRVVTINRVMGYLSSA

For the molecule “C17.8 (rat anti-mouse IL-12/IL-23p40, IgG2a) (antibody)”, the neutralizing IL-12 (in vitro neutralization studies) with IL-12 (mouse) (mouse) was found to be 5.

B1: IL-12/IL-23p40 mAb (antibody, V domains shown)
VH: EVQLVQSGAEVKKPGESLKISCKGSGYSFTTYWLGWVRQMPGKGLDWIGIMSPVDSDIRYSPSFQGQVTMSVDKSITTAYLQWNSLKASDTAMYYCARRRPGQGYFDFWGQGTLVTVSS
VL: DIQMTQSPSSLSASVGDRVTITCRASQGISSWLAWYQQKPEKAPKSLIYAASSLQSGVPSRFSGSGSGTDFTLTISSLQPEDFATYYCQQYNIYPYTFGQGTKLEIKR
notes: Fully human monoclonal IgG from a mammalian cell line, purified on protein A; also called IL-12/23p40 mAb; IL-12 p40 antibody
Take B1: the reduction of binding in assay [1] was approximately 40%; in assay [2], approximately 40%; in assay [3], approximately 40%; in assay [4], approximately 70%.
